In series [1] the target is CASV L-Cterm (California Academy of Sciences virus …, UniProt J7HBG8 1721-2046). Description: EMSA; 5 mM MgCl2; 5 pmol protein, 0.4 pmol RNA. The note with it: protein: recombinant; tags: N-terminal His-tag (pOPINF), removed by 3C protease; chain copies: 2; label: 32P in cap (alpha-32P-GTP); single strand.
Series [2] addresses CASV L-Cterm domain 2 (California Academy of Sciences virus …, UniProt J7HBG8 1794-1894). Nature of the series: EMSA; 5 mM MgCl2; 5 pmol protein, 0.4 pmol RNA. The following applies: protein: recombinant; tags: N-terminal His-tag, removed by 3C protease; chain copies: 2; label: 32P in cap (alpha-32P-GTP); single strand.

AAAAAAAAAAAAAAAAAAAAAAAAAAAAAAAAAAAAAAAA (ssRNA, 5' cap added with capping enzymes (Cellscript)) [capped polyA 40mer RNA]: the binding result in series [1] and in series [2] was “no binding” throughout.

Source of the values: article PMC5444859.
